Sequences and labels used below:
B1: Ribonuclease P protein subunit p25-like protein (Homo sapiens), Q8N5L8 (parent)
chain: MEHYRKAGSVELPAPSPMPQLPPDTLEMRVRDGSKIRNLLGLALGRLEGGSARHVVFSGSGRAAGKAVSCAEIVKRRVPGLHQLTKLRFLQTEDSWVPASPDTGLDPLTVRRHVPAVWVLLSRDPLDPNECGYQPPGAPPGLGSMPSSSCGPRSRRRARDTRS
partner: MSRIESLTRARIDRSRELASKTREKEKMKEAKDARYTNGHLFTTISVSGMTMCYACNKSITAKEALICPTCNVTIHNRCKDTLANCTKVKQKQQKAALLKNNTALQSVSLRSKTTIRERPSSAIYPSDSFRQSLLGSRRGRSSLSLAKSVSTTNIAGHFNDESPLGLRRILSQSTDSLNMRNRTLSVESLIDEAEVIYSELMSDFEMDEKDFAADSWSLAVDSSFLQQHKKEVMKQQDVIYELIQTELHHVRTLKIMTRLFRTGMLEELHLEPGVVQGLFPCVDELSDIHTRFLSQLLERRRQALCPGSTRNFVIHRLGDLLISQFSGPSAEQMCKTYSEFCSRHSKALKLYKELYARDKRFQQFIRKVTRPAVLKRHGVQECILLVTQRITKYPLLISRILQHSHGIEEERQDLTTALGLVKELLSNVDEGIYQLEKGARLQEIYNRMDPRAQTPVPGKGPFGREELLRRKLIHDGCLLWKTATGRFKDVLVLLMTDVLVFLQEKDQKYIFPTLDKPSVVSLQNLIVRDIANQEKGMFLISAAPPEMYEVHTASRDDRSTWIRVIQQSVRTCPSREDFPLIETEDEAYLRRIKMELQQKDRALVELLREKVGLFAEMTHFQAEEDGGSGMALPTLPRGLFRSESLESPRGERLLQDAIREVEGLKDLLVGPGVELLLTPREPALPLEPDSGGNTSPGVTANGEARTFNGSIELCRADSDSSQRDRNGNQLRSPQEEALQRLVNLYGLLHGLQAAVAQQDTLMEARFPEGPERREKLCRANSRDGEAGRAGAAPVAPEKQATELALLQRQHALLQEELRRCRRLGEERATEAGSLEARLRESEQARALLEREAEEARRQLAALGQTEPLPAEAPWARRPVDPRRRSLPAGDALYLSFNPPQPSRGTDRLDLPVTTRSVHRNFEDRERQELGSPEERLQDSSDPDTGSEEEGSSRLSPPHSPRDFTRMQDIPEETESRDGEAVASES
B2: Beta-crystallin A4 (Homo sapiens), P53673 (parent)
chain: MTLQCTKSAGPWKMVVWDEDGFQGRRHEFTAECPSVLELGFETVRSLKVLSGAWVGFEHAGFQGQQYILERGEYPSWDAWGGNTAYPAERLTSFRPAACANHRDSRLTIFEQENFLGKKGELSDDYPSLQAMGWEGNEVGSFHVHSGAWVCSQFPGYRGFQYVLECDHHSGDYKHFREWGSHAPTFQVQSIRRIQQ
B3: E3 ubiquitin-protein ligase TRIM32 (Homo sapiens), Q13049 (parent)
chain: MAAAAASHLNLDALREVLECPICMESFTEEQLRPKLLHCGHTICRQCLEKLLASSINGVRCPFCSKITRITSLTQLTDNLTVLKIIDTAGLSEAVGLLMCRSCGRRLPRQFCRSCGLVLCEPCREADHQPPGHCTLPVKEAAEERRRDFGEKLTRLRELMGELQRRKAALEGVSKDLQARYKAVLQEYGHEERRVQDELARSRKFFTGSLAEVEKSNSQVVEEQSYLLNIAEVQAVSRCDYFLAKIKQADVALLEETADEEEPELTASLPRELTLQDVELLKVGHVGPLQIGQAVKKPRTVNVEDSWAMEATASAASTSVTFREMDMSPEEVVASPRASPAKQRGPEAASNIQQCLFLKKMGAKGSTPGMFNLPVSLYVTSQGEVLVADRGNYRIQVFTRKGFLKEIRRSPSGIDSFVLSFLGADLPNLTPLSVAMNCQGLIGVTDSYDNSLKVYTLDGHCVACHRSQLSKPWGITALPSGQFVVTDVEGGKLWCFTVDRGSGVVKYSCLCSAVRPKFVTCDAEGTVYFTQGLGLNLENRQNEHHLEGGFSIGSVGPDGQLGRQISHFFSENEDFRCIAGMCVDARGDLIVADSSRKEILHFPKGGGYSVLIREGLTCPVGIALTPKGQLLVLDCWDHCIKIYSYHLRRYSTP
B4: Homeobox protein VENTX (Homo sapiens), O95231 (parent)
chain: MRLSSSPPRGPQQLSSFGSVDWLSQSSCSGPTHTPRPADFSLGSLPGPGQTSGAREPPQAVSIKEAAGSSNLPAPERTMAGLSKEPNTLRAPRVRTAFTMEQVRTLEGVFQHHQYLSPLERKRLAREMQLSEVQIKTWFQNRRMKHKRQMQDPQLHSPFSGSLHAPPAFYSTSSGLANGLQLLCPWAPLSGPQALMLPPGSFWGLCQVAQEALASAGASCCGQPLASHPPTPGRPSLGPALSTGPRGLCAMPQTGDAF
partner: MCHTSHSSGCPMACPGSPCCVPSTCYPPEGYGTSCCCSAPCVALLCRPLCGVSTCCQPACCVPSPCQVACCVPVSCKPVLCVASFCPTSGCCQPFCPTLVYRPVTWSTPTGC
B5: Protein NOXP20 (Homo sapiens), Q8IWE2 (parent)
chain: MSDDAGDTLATGDKAEVTEMPNSDSLPEDAEVHCDSAAVSHEPTPADPRGEGHENAAVQGAGAAAIGPPVQPQDANALEPPLNGDVTEDTLAECIDSVSLEAEPRSEIPLQEQNYLAVDSPPSGGGWAGWGSWGKSLLSSASATVGHGLTAVKEKAGATLRIHGVNSGSSEGAQPNTENGVPEITDAATDQGPAESPPTSPSSASRGMLSAITNVVQNTGKSVLTGGLDALEFIGKKTMNVLAESDPGFKRTKTLMERTVSLSQMLREAKEKEKQRLAQQLTMERTAHYGMLFDEYQGLSHLEALEILSNESESKVQSFLASLDGEKLELLKNDLISIKDIFAAKELENEENQEEQGLEEKGEEFARMLTELLFELHVAATPDKLNKAMKRAHDWVEEDQTVVSVDVAKVSEEETKKEEKEEKSQDPQEDKKEEKKTKTIEEVYMSSIESLAEVTARCIEQLHKVAELILHGQEEEKPAQDQAKVLIKLTTAMCNEVASLSKKFTNSLTTVGSNKKAEVLNPMISSVLLEGCNSTTYIQDAFQLLLPVLQVSHIQTSCLKAQP
partner: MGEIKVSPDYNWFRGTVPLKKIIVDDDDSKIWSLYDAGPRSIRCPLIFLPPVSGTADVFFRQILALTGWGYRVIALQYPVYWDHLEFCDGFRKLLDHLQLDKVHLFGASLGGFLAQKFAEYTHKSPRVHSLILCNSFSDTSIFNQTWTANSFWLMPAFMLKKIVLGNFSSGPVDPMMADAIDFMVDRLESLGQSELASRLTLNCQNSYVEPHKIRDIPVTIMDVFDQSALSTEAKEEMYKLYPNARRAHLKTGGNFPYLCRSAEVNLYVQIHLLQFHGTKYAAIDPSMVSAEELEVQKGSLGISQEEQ
B6: WASH complex subunit 3 (Homo sapiens), Q9Y3C0 (parent)
chain: MDEDGLPLMGSGIDLTKVPAIQQKRTVAFLNQFVVHTVQFLNRFSTVCEEKLADLSLRIQQIETTLNILDAKLSSIPGLDDVTVEVSPLNVTSVTNGAHPEATSEQPQQNSTQDSGLQESEVSAENILTVAKDPRYARYLKMVQVGVPVMAIRNKMISEGLDPDLLERPDAPVPDGESEKTVEESSDSESSFSD
partner: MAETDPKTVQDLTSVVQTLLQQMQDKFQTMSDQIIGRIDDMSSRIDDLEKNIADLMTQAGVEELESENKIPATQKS
B7: Tyrosine aminotransferase (Homo sapiens), P17735 (parent)
chain: MDPYMIQMSSKGNLPSILDVHVNVGGRSSVPGKMKGRKARWSVRPSDMAKKTFNPIRAIVDNMKVKPNPNKTMISLSIGDPTVFGNLPTDPEVTQAMKDALDSGKYNGYAPSIGFLSSREEIASYYHCPEAPLEAKDVILTSGCSQAIDLCLAVLANPGQNILVPRPGFSLYKTLAESMGIEVKLYNLLPEKSWEIDLKQLEYLIDEKTACLIVNNPSNPCGSVFSKRHLQKILAVAARQCVPILADEIYGDMVFSDCKYEPLATLSTDVPILSCGGLAKRWLVPGWRLGWILIHDRRDIFGNEIRDGLVKLSQRILGPCTIVQGALKSILCRTPGEFYHNTLSFLKSNADLCYGALAAIPGLRPVRPSGAMYLMVGIEMEHFPEFENDVEFTERLVAEQSVHCLPATCFEYPNFIRVVITVPEVMMLEACSRIQEFCEQHYHCAEGSQEECDK

We go through 9 variants from IntAct's records for PubMed 31515488.

In the first assay the parent is B1. To be noted: with arhg2_human ARHGEF2, Q92974.
For the variant D127N, the “effect of a mutation on the interaction” value is given as “with no effect”.

In a further assay the parent is B2. To be noted: with cep76_human CEP76, Q8TAP6.
cep76_human CEP76, Q8TAP6, sequence (Q8TAP6 whole entry): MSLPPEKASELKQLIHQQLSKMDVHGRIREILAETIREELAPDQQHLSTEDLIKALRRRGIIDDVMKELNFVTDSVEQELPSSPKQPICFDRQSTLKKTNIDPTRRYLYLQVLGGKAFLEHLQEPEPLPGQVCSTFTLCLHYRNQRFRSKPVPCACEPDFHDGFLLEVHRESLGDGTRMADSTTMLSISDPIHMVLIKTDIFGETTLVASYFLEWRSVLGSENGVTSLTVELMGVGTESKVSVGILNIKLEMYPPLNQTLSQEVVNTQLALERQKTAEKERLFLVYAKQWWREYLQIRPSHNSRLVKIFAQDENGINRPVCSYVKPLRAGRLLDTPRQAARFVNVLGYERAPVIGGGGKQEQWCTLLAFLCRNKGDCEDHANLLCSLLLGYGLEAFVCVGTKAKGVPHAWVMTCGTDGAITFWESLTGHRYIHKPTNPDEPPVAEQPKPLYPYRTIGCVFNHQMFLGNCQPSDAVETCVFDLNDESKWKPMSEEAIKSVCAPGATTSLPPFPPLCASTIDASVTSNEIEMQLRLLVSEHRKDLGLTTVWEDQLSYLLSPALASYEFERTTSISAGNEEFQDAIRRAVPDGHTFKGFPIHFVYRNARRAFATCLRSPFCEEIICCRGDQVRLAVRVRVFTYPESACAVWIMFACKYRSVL
Turning to R103C, the “effect of a mutation on the interaction” value is “with no effect”.

The variants in another assay derive from B3. Particulars: with abi2_human ABI2, Q9NYB9.
abi2_human ABI2, Q9NYB9, sequence (Q9NYB9 whole entry): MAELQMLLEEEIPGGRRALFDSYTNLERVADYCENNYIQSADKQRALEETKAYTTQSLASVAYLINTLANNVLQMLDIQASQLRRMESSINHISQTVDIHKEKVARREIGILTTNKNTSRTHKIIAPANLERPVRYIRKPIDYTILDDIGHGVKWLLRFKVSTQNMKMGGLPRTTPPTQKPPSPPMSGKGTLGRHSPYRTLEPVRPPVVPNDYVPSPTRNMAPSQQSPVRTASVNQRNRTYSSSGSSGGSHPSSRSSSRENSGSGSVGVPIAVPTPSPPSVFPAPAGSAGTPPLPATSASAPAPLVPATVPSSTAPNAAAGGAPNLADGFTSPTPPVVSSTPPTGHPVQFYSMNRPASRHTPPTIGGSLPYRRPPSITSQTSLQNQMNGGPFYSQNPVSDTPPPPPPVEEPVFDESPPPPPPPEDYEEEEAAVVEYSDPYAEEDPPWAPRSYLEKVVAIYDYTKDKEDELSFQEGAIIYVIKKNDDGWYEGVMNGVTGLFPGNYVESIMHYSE
In the case of E547A, the “effect of a mutation on the interaction” value is “disrupting interaction strength”.

The variants in a further assay derive from B3. To be noted: with pde9a_human PDE9A.
As for E547A, the “effect of a mutation on the interaction” value is “disrupting interaction strength”.

The variants in another assay derive from B3. Particulars: with sdcb1_human SDCBP.
With E547A, the “effect of a mutation on the interaction” value is reported as “disrupting interaction strength”.

In the next assay the parent is B4. Particulars: with kr124_human KRTAP12-4, P60329.
Consider L42P, for which the “effect of a mutation on the interaction” value is “with no effect”.

A226E: the “effect of a mutation on the interaction” value was “with no effect”.

Turning to M251V, the “effect of a mutation on the interaction” value is reported as “with no effect”.

In a further assay the parent is B5. Particulars: with spg21_human SPG21, Q9NZD8.
On to S40L, for which the “effect of a mutation on the interaction” value was “with no effect”.

The variants in the next assay derive from B6. To be noted: with hsbp1_human HSBP1, O75506.
Consider F44L, for which the “effect of a mutation on the interaction” value is recorded as “with no effect”.

Another assay covers variants of B7. Particulars: with ube3a_human UBE3A.
For the variant R119W, the “effect of a mutation on the interaction” value was “disrupting interaction strength”.
